The record followed here is patent US10188739B2 (Xenetic Biosciences, Inc., priority 2014, dated 2019).

Details of data set [1]: species or system CD-1 mice. The following applies: mouse, in vivo. The procedure:
(§1) Male CD-1 mice of 8 to 9 weeks of age (18-20 g body weight) were acclimatized for 7 days before being enrolled into the study. Mice were weighed and dosed at 5 μL of dosing material per 20 g of body weight. […] Animals were anesthetized and held with the dorsal end facing down. Dosing materials were administered at a rate of ˜1 μL/10 seconds split equally through both nostrils. Total dosing time ranged from 1.8 to 2.3 minutes. After a nominal 10 minutes post-dose, animals were sacrificed followed by blood collection, perfusion, and tissue collection. The olfactory bulbs were included in the collection of the brain tissues. All tissues were stored at nominal −80° C. until assay. Perfusate contains: 1×PBS pH 7.4, +2.7% w/v BSA+100 U/mL heparin. […] Read plate at Ex/Em 635/675.

Details of data set [2]: species or system CD-1 mice. The following applies: mouse, in vivo, 10.5 mg/kg. On the procedure: as §1, with “heparin. Lung/Liver/Kidney/Spleen. […] To evaluate recovery and matrix differences between the calibration matrices and study test samples, a spiking recovery experiment was performed (Table 2). […] The RFU correction factor was determined by dividing the response of each analyte spiked into BALB-c lysates (preparation procedures described below) by the response of each analyte spiked into CD-1 homogenate and then extracted. For kidney and liver matrices, there was enough material available to evaluate spiking recovery at two different levels.” for “heparin.”, “635/675 4. […]” for “635/675.”

Like-named read-outs stand apart in the source and are kept apart here.

As to “Sialong: polysialyated insulin conjugate by N-terminal (B-chain) aldehyde conjugation using 15 kDa CAO; tested labelled with AF-647 (Sialong^AF647)”, the “Plasma % Dose” value in data set [1] (2.1 mg/kg) came out at 0.0 % Dose; in data set [1] (10.5 mg/kg), 0.01 % Dose. Moreover, the “Lung % Dose” value in data set [2] came out at 0.01 % Dose.
